Assay results from the supplement of paper PMC12764529.
± gives the half width of the 95% confidence interval.

Assay: folding stability dG unfold (combined trypsin and chymotrypsin); higher = more stable
Summary of the method: (§1)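 Designed mini-proteins (under 80 residues, no cysteine) in a PA-tagged cDNA display construct were digested with trypsin and chymotrypsin. Each protease was used at 11 concentrations (threefold dilutions) plus a no-protease condition, followed by sequencing. K50 was inferred by Bayesian fitting of sequencing counts, and unfolding free energy was derived against a sequence-predicted unfolded-state K50 and a shared folded-state K50, per protease or combined. Only designs with AlphaFold2 dimer inter-PAE above 15 were kept.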

| Sequence | folding stability dG unfold [kcal/mol] |
| --- | --- |
| SAGGSAGGMIVLPPGATVDFDPSVARLTVTVKDPNSDKSTTTTYDVPPTATVTSAPGTIVVNVPSAGGSAGG [r6_804_JUSTAS] | 0.171 ± 0.073 |
| SAGGSAGGSAGGETITIKNKKTNETVTIEKDKDGNYTITYPDGSKKTYKKGEKISKSALSAGGSAGGSAGGS [r10_98_TrROS_Hall] | 0.9 ± 0.18 |
| MKKKVTISIKRKSEVKYTKFPNGEVVPVEDLGGLTVTIEVPESELEELLKKLDIPEDEIEEITVTITPEASS [r1_351_JUSTAS] | 0.648 ± 0.42 |
| SAGGSGPPVLVRLEVEVLGEPYTLTLPVPASLIHPSQRVRFRVRVVSVDPVNNRVTVRIESVELYPSAGGSA [r2_479_TrMRF] | 2.98 ± 0.036 |
| SAGGSAKKKKTLKITLIIKVKTKEEAEKLAEELAEKLKKLLPEGAKIKVKVTVNKETGYVTVEIELSAGGSA [r15_981_TrROS_Hall] | 3.38 ± 0.15 |
| SAGGSAGGVKIEVETRTETLPDGSTRTVMRVKIELPAPPPPPPPPTRTVTETTEDGETRTTTVRSAGGSAGG [r6_778_TrROS_Hall] | 1.64 ± 0.17 |
| SAGGSAGGSTLTVEIQITDADGNTLTAKVTLTFEPAPPPPPPPTVERRTTTVDGKTVTEYRRLSAGGSAGGS [r12_128_TrROS_Hall] | 0.969 ± 0.13 |
| SAGGKKKYKLIIKIKFKKGDIDKAKKEVEAIANKIKDEFEKKGVKVKVKVSYDKDNDIVYIEVEFEVPSAGG [r13_755_TrMRF] | 4.24 ± 0.14 |
| SAGGSAGGKRTVQIQFPMGPQWLDKLRDAFPNVDIEELEYDEGPGWHRIKIKVDSPEKIRDFIKSAGGSAGG [r6_334_TrROS] | 0.991 ± 0.18 |
| SAGGSAKKKKKKKVKKVITIPVGGYKIEITYNKKTKKITVKVYKKNKNGKLLSEEEVKKLVKELLSSAGGSA [r15_735_TrROS_Hall] | 2.58 ± 0.53 |
| SAGGSAGGSAGKTIKILLVVKDPETNEYYFLVMEIHLDENGNLHMKIKVFPTKEDAEKALSAGGSAGGSAGG [r11_792_TrROS_Hall] | 4.06 ± 0.15 |
| SAGGSAGGELEVEIVSVEFDEETKEIRIKIYVNGKLIEEKTIKIEPVKVYYKTKDGKKVSAEDLSAGGSAGG [r6_832_TrROS_Hall] | 1 ± 0.19 |
| SAGGSAGGSEKTLVTRTPDGYLLTLTEFTLPDGSKVTLATITFPNTGKTVTVPASLVPADATGSAGGSAGGS [r12_797_TrMRF] | 2.63 ± 0.041 |
| SAGGSAGGSAGYESVVNELKRKGYKVEVKKTPDGTYVVTVTKKDGTVETITLGPEGGKISSAGGSAGGSAGG [r17_503_JUSTAS] | 4.16 ± 0.15 |
| MYVVRAKFKIKGEDGSEFEAETVILVEETPEEAKEKVEEKAREIAEELGLSLENITEIEVEVLSLDEELLPS [r1_159_TrMRF] | 2.12 ± 0.27 |
| SAGMIEISEEGDTLTVTVPPGVSLEEVREYVEKKYPGMDLQEITETALPDGTTTVTFNVKKNPPSPKLLSAG [r5_110_JUSTAS] | 0.316 ± 0.16 |
| SAGGSAGGSAGMVIELPDGRKAIIVKYDKETKRFYVEIVDKKTGEKKIYEFKSLEEALKASAGGSAGGSAGG [r17_300_TrROS_Hall] | 2.79 ± 0.15 |
| KKVKIEIEVLSKTEEGYVMIAKAKYEEVEKVFEKPYKSKNPIETIKKIVKELFPGPEVTEVKVKYYPKEKKS [r1_399_TrMRF] | 1.35 ± 0.17 |
| SAGGSAGGVKEALEELLKKLKPGEKKTITLEIEVDGKLVKIEIEVLPDGEIKITKIEEIPKEDLSAGGSAGG [r6_87_TrROS_Hall] | 2.47 ± 0.16 |
| SAGGSAGGAVVKLPGNTVMTIDPSTGIAYVTDPSGKVTKYTLTKFPDKTLWEEEPVEEIPSDLLSAGGSAGG [r6_324_JUSTAS] | 1.55 ± 0.23 |
| SAGGSAGGSAGGMKPGEKPEVEYRVRIYDADTGEWREVPLEDLKKLKLPPGAVVEIEKVSAGGSAGGSAGGS [r10_1121_TrROS_Hall] | 2.93 ± 0.15 |

Assay: folding stability dG unfold from trypsin proteolysis; higher = more stable
Summary of the method: as §1

| Sequence | folding stability dG unfold [kcal/mol] |
| --- | --- |
| SAGGSVVTIVEVVPEDKKIVIKAPGNPITIPLENIKEIKLIPEKGYLEITINNTTIKVPLNNPNSISAGGSA [r2_48_JUSTAS] | 0.308 ± 0.051 |
| SAGGSAGGSAGPIVLIKIKNKNGKEIEIEMSLEELKKKLPKELKNMKVEIVEVKEVKVEKSAGGSAGGSAGG [r11_353_TrROS_Hall] | 0.351 ± 0.088 |
| SAGGMKVVIYVKDPEKFLKAIEEIENIPLENVKFEPLEGDYYKYEFPNLEAVEELIKKGYDILKIEPSAGGS [r16_381_TrMRF] | 1.96 ± 0.09 |
| SAMSLEDMTPEELEELVKELIEKLREELEKEGKTIKPGETIEIEIEVKGKKLKIKITVDKDGNIKIEVESAG [r14_501_TrROS_Hall] | 2.87 ± 0.2 |
| SAGGPVLRLSFPTRTPDGELVRVEVVYDPETGALLVRVYSLTRPNRAVLYLVDPENPLTVLRAEELPLSAGG [r13_400_TrMRF] | 2.47 ± 0.11 |
| SAGGMKLVVTKVGEDDNTEYYLITDPGSAEAIREAIKKLVPKDLPYKVTVLSYDPATGTYTVLVEVKRSAGG [r13_491_JUSTAS] | 2.91 ± 0.13 |
| SAGGGREIKVEFEIPHPNGNQMRITVTIYRSPGGIRIKIPVSYTDPEYRDYMREWAEYLARRIAKELSAGGS [r8_416_TrROS] | 3.05 ± 0.089 |
| SAGGSAGGMKVEVVFLVPGEVFSKFTPPLSEDDPVLLVLVFDVPAPPPVPRYVYDPETGEWRPESAGGSAGG [r6_211_TrMRF] | 2.39 ± 0.047 |
| SAGGPPIKKIEITKIHPGKGIIQVSIKLPGDGHPIMVRAEIDDPEPGKIKIEIQDPNNGQPQEITIKFSAGG [r13_337_TrROS] | 1.23 ± 0.094 |
| TTVTTPKNGLININLTDKKGNKYTFTAPVKDPVETLEKLKKLIKDLFPEYKDVKVKVVSVDGINIKVVVDIS [r1_389_TrMRF] | 2.66 ± 0.11 |
| SAEEVEIEIEIVIKMSEEEAERLAKELAEELARELGAEIVDVEVEVVEVDGELYVRIRVKIRLPKEELESAG [r14_219_TrROS_Hall] | 3.47 ± 0.098 |
| SAGGSAGGMEVPPDQRVLVLDVEGTPEAIEAFAEELVRRGFDKPVAVVAVDPETGKVTIVVPEDSAGGSAGG [r6_652_TrMRF] | 0.771 ± 0.05 |
| SAGGSAGGSAGIKIVAPSPELADMIAKEIAKEFGLPGKIKDIEIEVIPYKPTPNGGYQPYSAGGSAGGSAGG [r17_237_TrROS] | -0.14 ± 0.26 |
| SAGGSAGGSSVSVGVPSSYASVEVTVLKEEPGKGLVTVKVTTTVPGTGEVLTETVTIPRSELLSAGGSAGGS [r12_964_JUSTAS] | 1.01 ± 0.034 |
| SAGMEVEWEIGDADEDGYVRLTVKAVLLIPETGKPVVVEAEIKMPIEELENEEVLKELARKVVEEAEAESAG [r5_964_TrMRF] | 1.4 ± 0.037 |
| SAGGSAGGSAGGSKIENIKDIERNPNPDGHYMITIPNGWQIVVRMDKNGKMEIEIVPLKSAGGSAGGSAGGS [r4_177_TrROS] | 1.87 ± 0.076 |
| SAGGSASLASLRKVGETVTYTITPDGTLTVTTHTFYRDPVTGELVVESTTTTTPIPPGDAAALAALSAGGSA [r15_207_JUSTAS] | 2.72 ± 0.072 |
| SAGGSAGGMVETKLVESEELPGNRRVLTYRVTEPDSLYRVTVELTLDPSGTVLSSKTTTEPIPLSAGGSAGG [r6_20_JUSTAS] | 0.846 ± 0.053 |
| FRFTIPLPDGKKIIIDYRPMPDGNYMFDVKLQLPNGKERTIPIMVPREEFPGMPMEEMAETMVKEALKKLKS [r1_92_TrROS] | 2.63 ± 0.15 |
| SAGGSAGGSGSSSLLEETTDASGVRHLLTLVRLPGGKVLLVTTTVYPSGESTTTTEETDGSLLSAGGSAGGS [r12_995_JUSTAS] | 2.58 ± 0.06 |
| SAGGSAMTVKVRLRVRRRVFNEDGELVAEEELELEVEVEVRPPPPPPPPPLTAEELAEKLGLEPEDSAGGSA [r15_572_TrROS_Hall] | 2.52 ± 0.093 |

| Sequence | folding stability dG unfold [kcal/mol] |
| --- | --- |
| SAGGSAGGMIVLPPGATVDFDPSVARLTVTVKDPNSDKSTTTTYDVPPTATVTSAPGTIVVNVPSAGGSAGG [r6_804_JUSTAS] | -0.656 ± 0.14 |
| SAGGSAGGSAGGETITIKNKKTNETVTIEKDKDGNYTITYPDGSKKTYKKGEKISKSALSAGGSAGGSAGGS [r10_98_TrROS_Hall] | 0.162 ± 0.13 |
| MKKKVTISIKRKSEVKYTKFPNGEVVPVEDLGGLTVTIEVPESELEELLKKLDIPEDEIEEITVTITPEASS [r1_351_JUSTAS] | 1.08 ± 0.18 |
| SAGGSGPPVLVRLEVEVLGEPYTLTLPVPASLIHPSQRVRFRVRVVSVDPVNNRVTVRIESVELYPSAGGSA [r2_479_TrMRF] | 2.75 ± 0.065 |
| SAGGSAKKKKTLKITLIIKVKTKEEAEKLAEELAEKLKKLLPEGAKIKVKVTVNKETGYVTVEIELSAGGSA [r15_981_TrROS_Hall] | 2.88 ± 0.16 |
| SAGGSAGGVKIEVETRTETLPDGSTRTVMRVKIELPAPPPPPPPPTRTVTETTEDGETRTTTVRSAGGSAGG [r6_778_TrROS_Hall] | 0.626 ± 0.13 |
| SAGGSAGGSTLTVEIQITDADGNTLTAKVTLTFEPAPPPPPPPTVERRTTTVDGKTVTEYRRLSAGGSAGGS [r12_128_TrROS_Hall] | 0.631 ± 0.18 |
| SAGGKKKYKLIIKIKFKKGDIDKAKKEVEAIANKIKDEFEKKGVKVKVKVSYDKDNDIVYIEVEFEVPSAGG [r13_755_TrMRF] | 3.36 ± 0.12 |
| SAGGSAGGKRTVQIQFPMGPQWLDKLRDAFPNVDIEELEYDEGPGWHRIKIKVDSPEKIRDFIKSAGGSAGG [r6_334_TrROS] | 0.63 ± 0.19 |
| SAGGSAKKKKKKKVKKVITIPVGGYKIEITYNKKTKKITVKVYKKNKNGKLLSEEEVKKLVKELLSSAGGSA [r15_735_TrROS_Hall] | 1.73 ± 0.1 |
| SAGGSAGGSAGKTIKILLVVKDPETNEYYFLVMEIHLDENGNLHMKIKVFPTKEDAEKALSAGGSAGGSAGG [r11_792_TrROS_Hall] | 3.66 ± 0.19 |
| SAGGSAGGELEVEIVSVEFDEETKEIRIKIYVNGKLIEEKTIKIEPVKVYYKTKDGKKVSAEDLSAGGSAGG [r6_832_TrROS_Hall] | 1.1 ± 0.089 |
| SAGGSAGGSEKTLVTRTPDGYLLTLTEFTLPDGSKVTLATITFPNTGKTVTVPASLVPADATGSAGGSAGGS [r12_797_TrMRF] | 1.45 ± 0.028 |
| SAGGSAGGSAGYESVVNELKRKGYKVEVKKTPDGTYVVTVTKKDGTVETITLGPEGGKISSAGGSAGGSAGG [r17_503_JUSTAS] | 2.67 ± 0.14 |
| MYVVRAKFKIKGEDGSEFEAETVILVEETPEEAKEKVEEKAREIAEELGLSLENITEIEVEVLSLDEELLPS [r1_159_TrMRF] | 1.44 ± 0.1 |
| SAGMIEISEEGDTLTVTVPPGVSLEEVREYVEKKYPGMDLQEITETALPDGTTTVTFNVKKNPPSPKLLSAG [r5_110_JUSTAS] | -0.658 ± 0.37 |
| SAGGSAGGSAGMVIELPDGRKAIIVKYDKETKRFYVEIVDKKTGEKKIYEFKSLEEALKASAGGSAGGSAGG [r17_300_TrROS_Hall] | 2.18 ± 0.16 |
| KKVKIEIEVLSKTEEGYVMIAKAKYEEVEKVFEKPYKSKNPIETIKKIVKELFPGPEVTEVKVKYYPKEKKS [r1_399_TrMRF] | 1.11 ± 0.053 |
| SAGGSAGGVKEALEELLKKLKPGEKKTITLEIEVDGKLVKIEIEVLPDGEIKITKIEEIPKEDLSAGGSAGG [r6_87_TrROS_Hall] | 2.97 ± 0.12 |
| SAGGSAGGAVVKLPGNTVMTIDPSTGIAYVTDPSGKVTKYTLTKFPDKTLWEEEPVEEIPSDLLSAGGSAGG [r6_324_JUSTAS] | 1.53 ± 0.09 |
| SAGGSAGGSAGGMKPGEKPEVEYRVRIYDADTGEWREVPLEDLKKLKLPPGAVVEIEKVSAGGSAGGSAGGS [r10_1121_TrROS_Hall] | 2.01 ± 0.14 |
